What was measured:
[1] = molecular target: T1, Human IL2Rγ extracellular domain expressed with a C-terminal mouse IgG2a Fc tag (human); assay: SPR Biacore 4000, anti-hFc-captured mAb, 25 C; no dissociation observed, kd manually fixed at 1.00E-05
T1 construct: whole entry is the Fc-fused construct; also called hIL-2Rg-mFc
T1 chain: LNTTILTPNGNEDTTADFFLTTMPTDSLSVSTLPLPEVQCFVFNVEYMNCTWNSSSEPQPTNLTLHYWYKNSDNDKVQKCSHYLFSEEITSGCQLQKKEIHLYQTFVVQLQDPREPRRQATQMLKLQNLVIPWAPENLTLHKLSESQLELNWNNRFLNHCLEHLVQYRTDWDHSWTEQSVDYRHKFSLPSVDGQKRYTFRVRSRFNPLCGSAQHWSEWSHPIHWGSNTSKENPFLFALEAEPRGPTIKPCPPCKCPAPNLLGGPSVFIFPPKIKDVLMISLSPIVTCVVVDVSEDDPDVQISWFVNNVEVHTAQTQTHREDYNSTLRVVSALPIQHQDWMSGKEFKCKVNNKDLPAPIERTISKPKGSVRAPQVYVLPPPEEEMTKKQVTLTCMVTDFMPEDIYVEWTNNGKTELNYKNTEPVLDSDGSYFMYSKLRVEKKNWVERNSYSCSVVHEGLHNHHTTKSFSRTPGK

[2] = molecular target: T2, Mouse IL2Rγ extracellular domain expressed with a C-terminal myc-myc-hexahistidine tag (mouse); assay: SPR Biacore 4000, anti-hFc-captured mAb, 25 C
T2 construct: whole entry is the tagged construct; also called mIL-2Rg-MMH
T2 chain: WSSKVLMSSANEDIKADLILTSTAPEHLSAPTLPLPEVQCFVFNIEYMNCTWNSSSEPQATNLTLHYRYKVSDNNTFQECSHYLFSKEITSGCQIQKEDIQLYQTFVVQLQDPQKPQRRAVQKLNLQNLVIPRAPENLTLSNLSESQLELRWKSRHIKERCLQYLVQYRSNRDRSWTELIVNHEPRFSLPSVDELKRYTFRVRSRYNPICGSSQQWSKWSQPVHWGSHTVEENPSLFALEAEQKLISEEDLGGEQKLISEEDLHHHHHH
Summary of the method: (§1)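 Surface plasmon resonance with anti-hFc-captured antibodies in pH 7.4 HEPES-buffered saline containing EDTA and Tween-20; kinetic constants from a 1:1 model.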

[3] = molecular target: T1, Human IL2Rγ extracellular domain …; assay: SPR Biacore 4000, anti-hFc-captured mAb, 25 C
Summary of the method: as §1

[4] = molecular target: T3, Rat IL2Rγ extracellular domain expressed with a C-terminal myc-myc-hexahistidine tag (rat); assay: SPR Biacore 4000, anti-hFc-captured mAb, 25 C
T3 construct: whole entry is the tagged construct; also called rIL-2Rg-MMH; rat IL-2Rg-MMH
T3 chain: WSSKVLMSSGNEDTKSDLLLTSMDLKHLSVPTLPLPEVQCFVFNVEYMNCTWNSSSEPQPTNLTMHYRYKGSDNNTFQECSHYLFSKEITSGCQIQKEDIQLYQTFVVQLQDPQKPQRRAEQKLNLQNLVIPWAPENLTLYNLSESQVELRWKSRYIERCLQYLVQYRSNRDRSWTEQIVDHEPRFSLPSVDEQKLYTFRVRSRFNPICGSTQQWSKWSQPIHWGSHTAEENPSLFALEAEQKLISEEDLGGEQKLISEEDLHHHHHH
Summary of the method: as §1

[5] = molecular target: T1, Human IL2Rγ extracellular domain …; assay: SPR Biacore 4000, anti-hFc-captured mAb, 25 C; computed with kd fixed at 1.00E-05
Method: (§2) Equilibrium dissociation constants (KD values) for IL-2Rγ binding to purified anti-IL2Rγ monoclonal antibodies were determined using a Biacore 4000 instrument equipped with a real-time surface plasmon resonance biosensor. All binding studies were performed in 10 mM HEPES, 150 mM NaCl, 3 mM EDTA, and 0.05% v/v Surfactant Tween-20, pH 7.4 (HBS-ET) running buffer at 25° C. and 37° C. The Biacore sensor surface was first derivatized by amine coupling with a monoclonal mouse anti-human Fc antibody (GE, # BR-1008-39) to capture anti-IL2Rγ monoclonal antibodies.
(§3) The dissociation of monoclonal antibody bound IL2Rγ reagents were monitored for 8-10 minutes in HBS-ET running buffer. Kinetic association (kₐ) and dissociation (kd) rate constants were determined by fitting the real-time sensorgrams to a 1:1 binding model using Scrubber 2.0c curve fitting software. Binding dissociation equilibrium constants (KD) and dissociative half-lives (t_{1/2}) were calculated from the kinetic rate constants as: […]

[6] = molecular target: T1, Human IL2Rγ extracellular domain …; assay: SPR Biacore 4000, anti-hFc-captured mAb, 37 C; no dissociation observed, kd manually fixed at 1.00E-05
[7] = molecular target: T2, Mouse IL2Rγ extracellular domain …; assay: SPR Biacore 4000, anti-hFc-captured mAb, 37 C
Summary of the method: as §1

[8] = molecular target: T1, Human IL2Rγ extracellular domain …; assay: SPR Biacore 4000, anti-hFc-captured mAb, 37 C
Summary of the method: as §1

[9] = molecular target: T3, Rat IL2Rγ extracellular domain …; assay: SPR Biacore 4000, anti-hFc-captured mAb, 37 C
Summary of the method: as §1

[10] = molecular target: T4, Macaca fascicularis IL2Rγ extracellular domain expressed with a C-terminal myc-myc-hexahistidine tag (Macaca fascicularis); assay: SPR Biacore 4000, anti-hFc-captured mAb, 37 C
T4 construct: whole entry is the tagged construct; also called mfIL-2Rg-MMH
T4 chain: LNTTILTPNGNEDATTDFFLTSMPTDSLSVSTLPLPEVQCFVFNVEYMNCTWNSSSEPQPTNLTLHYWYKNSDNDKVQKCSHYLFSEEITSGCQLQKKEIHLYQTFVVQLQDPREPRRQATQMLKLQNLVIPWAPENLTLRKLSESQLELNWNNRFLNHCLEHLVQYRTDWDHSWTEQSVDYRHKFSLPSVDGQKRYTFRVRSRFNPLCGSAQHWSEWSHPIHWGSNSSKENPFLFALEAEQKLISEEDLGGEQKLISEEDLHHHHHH
Summary of the method: as §1

[11] = molecular target: T1, Human IL2Rγ extracellular domain …; assay: SPR Biacore 4000, anti-hFc-captured mAb, 37 C; computed with kd fixed at 1.00E-05
Method: as §2, §3

[12] = molecular target: T5, human IL2Rγ (endogenously expressed on cells) (human, UniProt P31785 23-369); assay: cell-based or functional assay
T5 sequence (looked up): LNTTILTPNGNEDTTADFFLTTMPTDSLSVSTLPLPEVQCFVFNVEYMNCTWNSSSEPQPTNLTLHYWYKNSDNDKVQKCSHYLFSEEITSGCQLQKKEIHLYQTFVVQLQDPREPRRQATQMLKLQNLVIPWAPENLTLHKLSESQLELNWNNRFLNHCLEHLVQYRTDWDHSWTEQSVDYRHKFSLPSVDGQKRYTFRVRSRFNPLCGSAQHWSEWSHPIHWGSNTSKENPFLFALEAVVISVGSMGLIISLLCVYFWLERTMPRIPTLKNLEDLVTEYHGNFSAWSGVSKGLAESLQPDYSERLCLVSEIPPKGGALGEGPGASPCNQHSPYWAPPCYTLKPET

[13] = molecular target: T6, D2 domain of human IL2Rγ extracellular domain expressed with a C-terminal myc-myc-hexahistidine tag (human); assay: SPR, mAb captured on anti-hFc, 25 C
T6 construct: also called human IL2Rγ domain 2
T6 chain: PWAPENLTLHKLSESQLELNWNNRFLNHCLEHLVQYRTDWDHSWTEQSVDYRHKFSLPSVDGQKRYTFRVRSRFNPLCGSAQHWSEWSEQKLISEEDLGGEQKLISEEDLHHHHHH
Summary of the method: (§4)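 Anti-IL2Rγ antibodies held on an anti-human Fc capture surface with receptor binding to them.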

[14] = molecular target: T7, D1 domain of human IL-2Rγ extracellular domain expressed with a C-terminal myc-myc-hexahistidine tag (human); assay: SPR, mAb captured on anti-hFc, 25 C
T7 construct: also called human IL2Rγ domain 1
T7 chain: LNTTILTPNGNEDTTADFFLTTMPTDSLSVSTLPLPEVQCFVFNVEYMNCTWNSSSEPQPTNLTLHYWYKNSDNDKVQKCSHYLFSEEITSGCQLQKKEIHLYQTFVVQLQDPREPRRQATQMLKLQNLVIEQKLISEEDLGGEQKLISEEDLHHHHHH
Summary of the method: as §1

[15] = molecular target: T7, D1 domain of human IL-2Rγ extracellular …; assay: SPR, mAb captured on anti-hFc, 37 C
Summary of the method: as §1

[16] = molecular target: T5, human IL2Rγ (endogenously expressed on …); assay: cell-based or functional assay; remark: listed apart in the source
[17] = molecular target: T6, D2 domain of human IL2Rγ extracellular …; assay: SPR, mAb captured on anti-hFc, 37 C
Summary of the method: as §4

[18] = molecular target: T5, human IL2Rγ (endogenously expressed on …); assay: cell-based or functional assay; remark: listed apart in the source

B1: H4H12908P (antibody, human IgG4 S228P, kappa, V domains shown)
VH: EVQLVESGGRLVQPGGSLRLSCEASGFTFSNYGMTWVRQAPGKGLEWVSVISGSDNRKYYAESVKGRFTISRDNSKNTLYLQMNSLRAEDTAVYYCAKLGYSRSSKDFYYGMDVWGQGTTVTVSS
VL: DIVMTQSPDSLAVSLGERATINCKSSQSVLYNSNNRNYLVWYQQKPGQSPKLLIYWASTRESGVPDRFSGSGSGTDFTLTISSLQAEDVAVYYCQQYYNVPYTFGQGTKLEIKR
notes: fully human anti-IL2Rgamma mAb, human IgG4 Fc
koff [1]: ≤ 1e-05 s⁻¹ | 100 nM Ag Bound [2]: 25 RU | Kd [2]: 108 nM | koff [2]: 0.00367 s⁻¹ | kon [2]: 34100 M⁻¹ s⁻¹ | t1/2 [2]: 3.1 min | 50 nM Ag Bound [3]: 11 RU | kon [3]: 76200 M⁻¹ s⁻¹ | 100 nM Ag Bound [4]: 19 RU | Kd [4]: 79.3 nM | koff [4]: 0.00237 s⁻¹ | kon [4]: 29800 M⁻¹ s⁻¹ | t1/2 [4]: 5 min | Kd [5]: ≤ 0.131 nM | t1/2 [5]: ≥ 1160 min | koff [6]: ≤ 1e-05 s⁻¹ | 100 nM Ag Bound [7]: 6 RU | Kd [7]: 387 nM | koff [7]: 0.0293 s⁻¹ | kon [7]: 75700 M⁻¹ s⁻¹ | t1/2 [7]: 0.4 min | 50 nM Ag Bound [8]: 8 RU | kon [8]: 19300 M⁻¹ s⁻¹ | 100 nM Ag Bound [9]: 8 RU | Kd [9]: 215 nM | koff [9]: 0.00835 s⁻¹ | kon [9]: 38900 M⁻¹ s⁻¹ | t1/2 [9]: 1.4 min | 100 nM Ag Bound [10]: 13 RU | Kd [10]: 39.8 nM | koff [10]: 0.00148 s⁻¹ | kon [10]: 37100 M⁻¹ s⁻¹ | t1/2 [10]: 8 min | Kd [11]: ≤ 0.518 nM | t1/2 [11]: ≥ 1160 min

B2: H4H12922P2 (antibody, human IgG4 S228P, kappa, V domains shown)
VH: QVQLVESGGGVVKPGGSLRLSCAASGFTFSNSGIHWVRQAPGKGLEWVALISYAGSNKYYADSVKGRFTISRDNSKNTLSLQMNSLRAEDTAVYYCAKEVWTGTYDSFDMWGRGTMVTVSS
VL: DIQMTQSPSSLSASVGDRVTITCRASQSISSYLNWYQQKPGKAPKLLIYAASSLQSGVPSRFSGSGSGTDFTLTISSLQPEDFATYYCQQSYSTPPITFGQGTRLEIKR
notes: human IgG4; also called REGN7256
IC50; IL-2 30 pM; NK92/hIL7R/STAT3-luc [12]: 1.6e-08 M | IC50; IL-4 250 pM; Ramos.2G6.4C10/STAT3-luc [12]: 1.3e-09 M | IC50; IL-7 50 pM; NK92/hIL7R/STAT3-luc [12]: 2.6e-09 M | IC50; IL-9 20 pM; NK92/hIL7R/STAT3-luc [12]: 3.1e-09 M | IC50; IL-15 60 pM; NK92/hIL7R/STAT3-luc [12]: 9.3e-09 M | IC50; IL-21 5 pM; NK92/hIL7R/STAT3-luc [12]: > 1e-07 M | Max Inhibition (%); IL-2 30 pM; NK92/hIL7R/STAT3-luc [12]: 85% | Max Inhibition (%); IL-4 250 pM; Ramos.2G6.4C10/STAT3-luc [12]: 100% | Max Inhibition (%); IL-7 50 pM; NK92/hIL7R/STAT3-luc [12]: 98% | Max Inhibition (%); IL-9 20 pM; NK92/hIL7R/STAT3-luc [12]: 99% | Max Inhibition (%); IL-15 60 pM; NK92/hIL7R/STAT3-luc [12]: 91% | Max Inhibition (%); IL-21 5 pM; NK92/hIL7R/STAT3-luc [12]: 49% | 100 nM Ag Bound [13]: 2 RU | binding result [13]: no binding (tested: 100 nM) | 100 nM Ag Bound [14]: 50 RU | Kd [14]: 3.32 nM | koff [14]: 0.000839 s⁻¹ | kon [14]: 252000 M⁻¹ s⁻¹ | t½ [14]: 14 min | 100 nM Ag Bound [15]: 26 RU | Kd [15]: 4.13 nM | koff [15]: 0.00168 s⁻¹ | kon [15]: 407000 M⁻¹ s⁻¹ | t½ [15]: 7 min | IC50; IL-2 (10 nM)-induced STAT phosphorylation, human CD4+ T cells [16]: 1.87 nM | IC50; IL-4 (50 pM)-induced STAT phosphorylation, human CD4+ T cells [16]: 8.54e-10 M | IC50; IL-7 (1 pM)-induced STAT phosphorylation, human CD4+ T cells [16]: 5.8e-10 M | IC50; IL-15 (0.5 nM)-induced STAT phosphorylation, human CD4+ T cells [16]: 2.46 nM | IC50; IL-21 (50 pM)-induced STAT phosphorylation, human CD4+ T cells [16]: 2.21e-09 M | 100 nM Ag Bound [17]: 3 RU | IC50; IL-9 (2 nM)-induced STAT3 phosphorylation, in vitro differentiated human mast cells [18]: 0.416 nM

Source: patent US20200247894A1 (Regeneron, published 2020)
